Test results taken from US11193150B2, “Nepetalactol oxidoreductases, nepetalactol synthases, and microbes capable of producing nepetalactone” (Zymergen Inc., priority 2017, dated 2021).

B1: NcatNOR21: candidate nepetalactol oxidoreductase (NOR) from Nepeta cataria, protein SEQ ID NO: 566 (protein, listed as Nepeta cataria)
chain: MAKSVNAVGWAARDTSGLLSPLKFARPAAGDRDVQFKVLYCGICHSDLHSIKNEWGNTQYPIVPGHEIVGVVTAVGPKATKFKAGDKVGVGCLVNSCRHCDQCAADLENYCPQLVQTYNSVLADGSVTYGGYSDVMTADEDFVIRWPENFPMDKGAPLLCAGVTTYSPLRYYGLDKPGLHIGVVGLGGLGHVAVKFAKAFGMKVTVISTSAGKKKEAIETLGADAFLISRDASEMQAAAGTLDGMIDTVSAQHPLPPLLSLLKPHGKLILVGAPEKPFELPAFPLLMGRKTVAGSVIGGLKETQEMIDFAAKHNLLPEVEMIPMDYVNTAMERLAKADVKYRFVIDVGNTLTKAD
B2: NcatNOR15: candidate nepetalactol oxidoreductase (NOR) from Nepeta cataria, protein SEQ ID NO: 561 (protein, listed as Nepeta cataria)
chain: MAKTPETEHPVKAFGYAATDNSGTFSPFKFSRRATGERDVQFKVLYCGVCHSDLHMVKNEWGVTHYPIVPGHEIVGVATEVGSKVEKVKVGDKVGVGVIVGSCRQCDQCSNDLENYCSKQILTYGAPYLDGTITRGGYSDIMVADEHFIIRWPENFPLDAGAPLLCAGITTYSPLRYFGLDKPGLRVGVNGLGGLGHVAVKFAKAFGTKVTVISSSLRKKKEAVEKLGVDEFLVSTDPEQMQAAIGTLDGIIDTVSAEHSVVSLLSLLKPHGRLIVVGAPEKPHQLPAFPLITGRKSISGSAIGGMKETQEMIDFAAKHNILPDVEVIPIDYINTAMERLLKSDVKYRFVIDVEKSLKA
B3: GAR_NOR15: NOR candidate codon-optimized for S. cerevisiae (SEQ ID NO: 1393), expressed from pESC-URA (protein, listed as Nepeta cataria)
chain: MADKEGEVVCVTGGSGFIGSWLVSLLLRRGYSVRATVKNLGDERETKHLEAIEGADSRLSLFQIDLLDYDSVATAVGDAAGVFHLASPCTIDQVNDPQRELLDPAIKGTLNVLKAAKNLGVRRVVVTSSISAMIASSNSLAETGEDCWIDEDYCRQNGLWYPVSKALAEKAAWKLAEENGLDIVVVNPGMVVGPILPPALNSSMQLMLHVLQGKDFFEGFFMGLVHVKDVALAQILLYENTSASGRHLCVESLSRYDDFAKQMEKLYPEYKLPRFSNNAQHGSLKSDAALKKLRDLGIEFAPLEQIVKDSIESLRSKGYIS
B4: NcatNOR34: candidate nepetalactol oxidoreductase (NOR) from Nepeta cataria, protein SEQ ID NO: 578 (protein, listed as Nepeta cataria)
chain: MAFCRSSLLLRKALGGSRRAAAAATCSSAYACGWQSERGRWYSGGEGTTISAPGYHVNTAPSHMTGAVFWDKDKPITYEEFEMPRPKANEVLIKTKACGACHSDLHVIKGDLKFPCPCILGHEITGEVVEHGPLTETKYIERYPVGSKVIGAFIMPCGSCFYCSRGEDDLCEPYFAYNRAKGTLYDGQTRLFLRGSGKPVHMWSMSGLAEYCVTPVNGLGALPDTLPYAESSVLGCAVFTAYGAIAHAAEVKPGNSVAVIGIGGVGSSCLQIAKAFGASEIIAVDVEDGKLETAKTFGATHIINSRKEDAIAKIKELTDGRGVDIAVEAIGGPKTFAQCVGSVRAGGKAVMIGLSPTGGKGEVEITQLVRRKVKVIGSYGGRAMTDLPKLVELAEQGTFNLEAAVTRRYKFEEVAQAYQDLQNKTIVGRGVIEIM

Experiments:
nepetalactol [1] = assay: In vitro conversion of nepetalactol to nepetalactone by candidate NORs in clarified cell lysate with NAD+ or NADP+ (GC-MS); type: biochemical; details: clarified lysate of E. coli BL21 (DE3) expressing the candidate, 30° C., 2 hours
Method: BL21 (DE3) strains were streaked out on LB plates containing kanamycin from glycerol stock and grown overnight at 37° C. A single colony was inoculated into 4 mL of LB medium containing kanamycin in 15 mL disposable culture tubes and incubated overnight at 30° C. with shaking at 250 rpm. 500 μL of the overnight culture was subcultured into 50 mL of LB medium containing kanamycin in a 250 mL baffled flask. The culture was grown at 37° C. and the optical density at 600 nm (OD600) was monitored. When OD600 reached between 0.6-1, the cultures were cooled on ice for 15 minutes. The cultures were then induced with 100 μM of isopropyl β-D-1-thiogalactopyranoside and incubated at 15° C. with shaking at 250 rpm for roughly 20 hours. Cultures were pelleted by centrifugation in 50 mL centrifuge tubes. The supernatant was decanted and the pellets were frozen at −20° C. for later processing.
Pellets were thawed on ice and resuspended with 3 mL of cold lysis buffer: 50 mM sodium phosphate, pH=7.4, 100 mM sodium chloride. All remaining steps were performed either on ice or at 4° C. The cell mixture was transferred to a 15 mL centrifuge tube and disrupted with three rounds of sonication using the Branson Sonifier 450 with a double-level microtip at 70% amplitude. A single round of sonication consisted of 6 cycles of 10 seconds with the sonicator on, and 10 seconds off. Between each round, the cell mixture was allowed to sit on ice for a minute to cool. The lysed cell mixture was transferred to 1.7 mL centrifuge tubes and centrifuged at maximum speed in a microcentrifuge for 20 minutes. The supernatant (clarified cell lysate) was collected in a separate tube and used for in vitro characterization.
The in vitro reactions were setup as follows: 2 μL of 100 mM NAD+ or NADP+ and 10 μL of 100 uM nepetalactol was added to 188 μL of the clarified cell lysate. The reactions were incubated at 30° C. shaking at 200 rpm for 2 hours. […] The organic layer was withdrawn and analyzed with gas chromatography coupled to mass spectrometry (GC-MS). […]

nepetalactol [2] = assay: Production of nepetalactone from nepetalactol in Saccharomyces cerevisiae strains expressing NOR candidates from 2μ plasmid pESC-URA; type: cell-based; details: 2% galactose, 100 mg/L of nepetalactol fed, 30° C., 24 hours
Method: 300 μL of ethyl acetate was added to the cultures. The plates were sealed with a PlateLoc Thermal Microplate Sealer and the plates were shaken for one min at 750 rpm. The plates were centrifuged and the ethyl acetate layer was collected and analyzed by liquid chromatography coupled to mass spectrometry (LC-MS). Target analytes were quantified against authentic standards.
The plasmids were individually transformed into chemically competent Saccharomyces cerevisiae cells as described in EXAMPLE 2. Transformants were selected on SD-URA agar plates. Three to four replicates were picked into SD-URA liquid medium and cultured at 30° C. for one to two days with shaking at 1000 rpm. Cultures were glycerol stocked at a final concentration of 16.6% glycerol and stored at −80° C. until later use.
10 μL of the glycerol stocked strains was inoculated into 300 μL of minimal media lacking uracil, and containing 4% glucose in 96-well plates to produce seed cultures. The plates were incubated at 30° C. at 1000 rpm for 1-2 days. 10 μL of the seed cultures was then inoculated into 300 μL of minimal media lacking uracil, and containing 2% galactose and 100 mg/L of nepetalactol. 30 μL of methyl oleate was next added to the wells. The main culture plates were further incubated at 30° C., 1000 rpm for 24 hours before assays were performed to assess cell growth and titer. […]

Molecule	oxidation of nepetalactol to nepetalactone (nepetalactol [1])	nepetalactone produced (titer) (nepetalactol [2]) [mg/L]
B1	can oxidize nepetalactol to nepetalactone	–
B2	can oxidize nepetalactol to nepetalactone	–
B3	–	93
B4	can oxidize nepetalactol to nepetalactone	–
